Consider one sequence from US6030776.

Data set [1] addresses N-bromoacetyl-bradykinin (BrBK) (UniProt P01042). Particulars: 5' guanosine monophosphorothioate (GMPS); 100-fold reduction in Km vs bulk 30N1 pool, 67-fold higher kcat, 6700-fold higher kcat/Km; thioether bond formation assayed on APM gel.
For data set [2], the target named is bradykinin (native BK peptide) (UniProt P01042). In words: inhibition. Particulars: 5' guanosine monophosphorothioate (GMPS); inhibition of reaction of 12.1 with BrBK; nearly identical to Km of the uninhibited reaction.
The target of data set [3] is des-Arg9-bradykinin lacks carboxy-terminal Arg9 (UniProt P01042). In words: inhibition. Particulars: 5' guanosine monophosphorothioate (GMPS); inhibition of reaction of 12.1 with BrBK; about 18-fold weaker than BK.

As to “AGGCUUCGACAAACGCUCAAAGCUGUUGGCAGCGCUGGUGAAGGGAUGGC [reactant 12.1 GMPS-RNA]”, the fold reduction in Km vs starting pool in data set [1] was determined as 100 fold. Further, the results for the Ki in data set [2] and in data set [3] were 140 µM and 2600 µM, respectively.
